For the assay, the target named is PTH receptors on UMR 106 cells (rat (endogenous in UMR 106)) (UniProt P25961).

This note sets out measurements from article PMC3732869.

Sequence of UniProt P25961 (P25961 27-591): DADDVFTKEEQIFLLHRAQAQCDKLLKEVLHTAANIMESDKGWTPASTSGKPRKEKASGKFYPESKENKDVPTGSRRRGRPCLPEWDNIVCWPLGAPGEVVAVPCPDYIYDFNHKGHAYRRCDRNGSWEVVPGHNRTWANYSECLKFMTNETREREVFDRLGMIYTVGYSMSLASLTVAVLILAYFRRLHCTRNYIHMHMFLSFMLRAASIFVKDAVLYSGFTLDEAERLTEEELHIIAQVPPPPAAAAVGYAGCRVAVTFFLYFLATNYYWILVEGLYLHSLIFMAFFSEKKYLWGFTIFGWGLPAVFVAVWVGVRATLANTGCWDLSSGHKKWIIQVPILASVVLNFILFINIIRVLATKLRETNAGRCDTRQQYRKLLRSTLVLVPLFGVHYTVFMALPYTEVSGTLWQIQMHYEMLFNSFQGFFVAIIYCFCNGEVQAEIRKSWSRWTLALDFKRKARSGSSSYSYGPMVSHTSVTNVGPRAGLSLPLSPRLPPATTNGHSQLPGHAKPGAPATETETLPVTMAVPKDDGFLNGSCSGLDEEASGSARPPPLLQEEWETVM

The substance “recombinant human parathyroid hormone (rhPTH 1-34) (peptide)” displayed a potency in the cAMP bioassay on UMR 106 cells, against the standard of 99.7%.
